These results are taken from FireProtDB (doi:10.1021/bi00009a035).

The conditions of the data set: Saccharomyces cerevisiae (strain ATCC 204508 / S288c), pH 7.5, 25 °C, GdnHCl, CD, Tris-HCl 20 mM, NaCl 40 mM, reversible: yes (94-100%).

Sequence of Cytochrome c isoform 1 wild type, P00044 (P00044 whole entry, canonical isoform): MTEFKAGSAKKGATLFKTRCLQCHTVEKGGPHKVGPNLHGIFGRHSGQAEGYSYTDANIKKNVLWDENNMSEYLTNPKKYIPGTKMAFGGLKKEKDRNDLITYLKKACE
Sequence of Cytochrome c isoform 1 K79R, P00044 (P00044 whole entry K79R, canonical isoform): as the sequence (P00044 whole entry, canonical isoform) above, with K79R counted along it
Sequence of Cytochrome c isoform 1 K79A, P00044 (P00044 whole entry K79A, canonical isoform): as the sequence (P00044 whole entry, canonical isoform) above, with K79A counted along it
Sequence of Cytochrome c isoform 1 K79V, P00044 (P00044 whole entry K79V, canonical isoform): as the sequence (P00044 whole entry, canonical isoform) above, with K79V counted along it
Sequence of Cytochrome c isoform 1 K79G, P00044 (P00044 whole entry K79G, canonical isoform): as the sequence (P00044 whole entry, canonical isoform) above, with K79G counted along it
Sequence of Cytochrome c isoform 1 K79L, P00044 (P00044 whole entry K79L, canonical isoform): as the sequence (P00044 whole entry, canonical isoform) above, with K79L counted along it
Sequence of Cytochrome c isoform 1 K79I, P00044 (P00044 whole entry K79I, canonical isoform): as the sequence (P00044 whole entry, canonical isoform) above, with K79I counted along it

Consider Cytochrome c isoform 1 K79A, P00044, for which, for the setting “structure 1YCC”, the “ddG of mutation (higher = less stable)” value was found to be 0.45 kcal/mol, the denaturant m value stood at 4.44 kcal/mol/M, the “denaturant midpoint (higher = more stable)” value (“denaturant midpoint” below) stood at 1.17 M and the unfolding free energy is 5.21 kcal/mol.

Take Cytochrome c isoform 1 K79G, P00044: where the note is “structure 1YCC”, the “ddG of mutation (higher = less stable)” value was 0.74 kcal/mol, the denaturant m value was found to be 4.58 kcal/mol/M, the “denaturant midpoint” value was found to be 1.07 M and the unfolding free energy is 4.92 kcal/mol.

As for Cytochrome c isoform 1 K79I, P00044, under “structure 1YCC”, the “ddG of mutation (higher = less stable)” value was 1.19 kcal/mol, the denaturant m value turned out to be 4.29 kcal/mol/M, the “denaturant midpoint” value came to 1.04 M and the unfolding free energy came to 4.47 kcal/mol.

With Cytochrome c isoform 1 K79L, P00044, for the setting “structure 1YCC”, the “ddG of mutation (higher = less stable)” value came to 0.03 kcal/mol, the denaturant m value turned out to be 4.98 kcal/mol/M, the “denaturant midpoint” value stood at 1.13 M and the unfolding free energy was 5.63 kcal/mol.

Cytochrome c isoform 1 K79R, P00044: under “structure 1YCC”, the “ddG of mutation (higher = less stable)” value amounted to 0.03 kcal/mol, the denaturant m value stood at 5.25 kcal/mol/M, the “denaturant midpoint” value stood at 1.07 M and the unfolding free energy is 5.63 kcal/mol.

For the substance Cytochrome c isoform 1 K79V, P00044, for the setting “structure 1YCC”, the “ddG of mutation (higher = less stable)” value was found to be 1.38 kcal/mol, the denaturant m value turned out to be 4.01 kcal/mol/M, the “denaturant midpoint” value came out at 1.07 M and the unfolding free energy came out at 4.28 kcal/mol.

For the substance “Cytochrome c isoform 1 wild type, P00044”, the denaturant m value was found to be 4.87 kcal/mol/M, the “denaturant midpoint” value came out at 1.16 M and the unfolding free energy amounted to 5.66 kcal/mol.
